Results: the nanobody polyreactivity screen of Harvey et al. (2022)

Experiment: yeast display, Sf9 membrane polyspecificity reagent, FACS + sequencing; frameworks hold sequencing errors
Method in brief: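 Galactose-induced (36–48 hours) yeast carrying a synthetic nanobody display library were exposed to 10% biotinylated, detergent-solubilized Sf9 membrane reagent at 4 °C for 1 hour. FACS followed streptavidin microbead enrichment, using low and high (top ~1%) gates for expression (anti-HA) and reagent binding (streptavidin). Colony PCR, MiSeq 2 × 250 sequencing and CDR-length filtering followed. Labels for polyreactivity reflect the gate of origin.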

Row | Sequence | polyreactivity (PSR sort gate)
1 | QVQLVESGRGLVQAGGSLRLSCAASGTTCLYYTMGWYRQAPGKERELVASISYSGGRTYYADSVKGRFTISRDNAKNTVYLQMNSLKPEDTAVYYCNKKRYYDGYDYWGQGTQVTVSS | high polyreactivity
2 | QVQLVESGGGLVQAGGSLRLSCAASGSTFGDNAMGWYRQAPGKERELVAAISSSGDSTYYADSVKGRFTISRDNAKNTVYLQMNSLKPEDTAVYYCAADRGSTAGSVTYTPGNYWGQGTQVTVSS | low polyreactivity
3 | QVQLVESGGGLVQAGGSLRLSCAASGFIIEVNAMGWYRQAPGKERELVARIDWSGGSTYYADSVKWRFTISRDNAKNTVYLQMNILKPEYTEVYYCNAEWTYADPNEYGYWGQGTLVTVSS | low polyreactivity
4 | QVQLVESGGGLVQAGGSLRLSCAASGITFYRYAMGWYRQAPGKERELVATITSGGSTYYADSVKGRFTISRDNAKNTVYLQMNSLKPEDTAVYYCAAESVWTWYYTTAGMDYWGQGTQVTVSS | high polyreactivity
5 | QVQLVESGGGLVQAGGSLRLSCAASGIIFESYSMGWYRQAPGKERELVAAISWDGGSTYYADSVKGRFTISRDNAKNTVYLQMNSLKPEDTAVYYCAAESYGIYDGYDYWGQGTQVTVSS | high polyreactivity
6 | QVQLVESGGGLVQAGGSLRLSCAASGSTFTHYDMGWYRQAPGKERELVADISRSGGRTYYADSVKGRFTISRDNAKNTVYLQMNSLKPEDTAVYYCATEFEHINGVNQGPYIDDYSWGQGSQVTVSS | low polyreactivity
7 | QVQLVESGGGLVQAGGRLRLSCAASGRTFDRYAMGWYRQAPGKERELVAAITWSGGRTYYADSVKGRFTISRDNAKKTVYLQMNSLKPEDTAVYYCAADNSYRGYHSPYDYWGQGTQVTVSS | low polyreactivity
8 | QVQLVETGGGLVQAGGSLRLSCAASGSIFYVYAMGWYRQAPRKERELVAAINTSGGSTYADSVKGRFTISRDNAKNTDYLQMNSLKPEDTAVYYCAADGYYEYTWGEYDSWGQGTQVTVSS | low polyreactivity
9 | QVQLVESGGGLVQAGGSLRLSCAASGSTFQNYAMGWYRQAPGKERELVATINWSGGNTYYADSVKGRFTISRDNAKNTVYLQMNSLKPEDTAVYYCAADSPRYYYWVGPYYGYDYWGQGTQVTVSS | high polyreactivity
10 | QVQLVESGGGLVHAGGSLRLSSAPSGSTFQAYAMGWYRAAPGKERELVAAINEGDSRTYYADSVKGRFTISRDNAKNTVYLPMNSQKPEDTAVYYCAIGNFRPYDYWGQGTQVTVSS | low polyreactivity
11 | QVQLVESGGGLVQAGGSLRLSCAASGSTFSAYTMGWYRQAPGKERELVAAISYRGGSTYYADSVKGRFTISRDNAKNTVYLQMNSRKPEDTAVYYCAAERKHYGLYDYWGQGTQVTVSS | low polyreactivity
12 | QFQLVESGGGLVQAGGSLRLSCAASGRIFEDSMGWYRQAPGKERELVAAIRWSGGGTYYADSVKGRFTISRDNAKNTVYLQMNSLKPEDTAVYYCATPGTGSVELYGYWGQGTQVTVSS | low polyreactivity
13 | QVQLVESGGGLVQAGGSLRLSCAASGFIFVDYVMGWDIQAPGKERELVAAISERGTGTYYADSVKRRFTISRDKAKNTVYLQMNSLKPEDTAVYYCATLGTGWWNCAYYYWGQGTQVTVSS | low polyreactivity
14 | QGQLVESGGGLVQAGGSLRLSCAASGSTFTYNAMGWYRQAPGKERELVASISSGTTTYYADSVKGRFTISRDNAKNTVYLQMNSLKPEDTAVYYCAVDSWSRVQGWLAHNYDYWGQGTQVTVSS | low polyreactivity
15 | QVQLVESGGGLVQAGGSLRLSCAASGRIFYLYAMGWYRQAPGKERELVAGITSGGRTNYADSVKGRFTISRDNAKNTVYLQMNSLKPEDTAVYYCAAFYWGRYTGYYWGQGTQVTVSS | high polyreactivity
16 | QVQLVESGGGLYQAGGSLRLSCAASGLIFTTNAMGWYRQAPGKEREFVAAISPSGGSTYYADSVKGRFTISRDNAKNTVYLQMNSLKPEDTAVYYCAARYSPVWHKYYYWGQGTQVTVSS | high polyreactivity
17 | QVQLVESRGGLVQAGGSLRLSCAASGSTFDGNAMGWYRQAPGKERELVAAISIGGSTSYADSVKGRFTISRDNAKNTVYLQMNSLNPEDTAVYYCAADRYRTFYQWKRYRYDYWGQGTQVTVSS | high polyreactivity
18 | QVQLVESGGGLVQAGGSLRLSCAASGYIFEIYAMGWYRQAPGKERELVAAISTRGGRTYYADSVKGRFTISRDNAKNTVYLEMKSLKPEDTAVYYCARESSIVPYGYWGQGTQVTVSS | low polyreactivity
19 | QVQLVESGGGLVQAGGSLRLSCAASRSTFRYYTMGWYRQSPGKERELVARISRSGGSTYYADSVKGRFTISRDNAKNTVYLQMNSLKPEDTSVYYCAALYYVKPGQRYDYWGQGTQVTVSS | high polyreactivity
20 | QVQLVESGGGLVQAGGSLRLSCAASGRTFTYNAMGWYRQAPGKDRELVARISFSGSSTYYADSVKGRFTISRDNAKNTVYLQMNSLKPEDTAVYYCATEAPYYIGGRYRYQRYDYWGQGTQVTVSS | high polyreactivity
21 | QDHLVESGGGLVQAGGTLRLSCAASGRIFVGYAMGWYRQAPGKERELVAGISRSGDSTYYADSVKGRFTISRDNAKNTVYLQMNSLKPEDTAVYYCAASWYKNQTRYYYWGQGTQVTVSS | high polyreactivity
22 | QVQLQESGGGLVQAGGSLRMICAASGYISACRQMGWYRKAPGKEREFVATINGGATTNYADSVKGRFTISRDNAKNSVYLQMNSLKPEDTAVYYCAAVIWYVQDYTYWGQGAQVTVSS | high polyreactivity

Row | Sequence | polyreactivity (PSR sort gate)
23 | QVQHVESGGGLVQAGGSLRLSCAASGYIFYTYAMGWYRQAPGKERELVAGINRGDSTNYADSVKGRFTISRDNAKNTVYLQMNSLKPEDTAVYYCNARQRTYYRTHRIRHKGNGYWGQGTQVTVSS | low polyreactivity
24 | QVQLVESGGGLVQAGGSLRLSCAPSGSIFQFYAMGWYRQAPGKESELVAGINTSGGSTYYADSVKGRFTISRDNAKNTVYLQMNSLKPEDTEVYYCMARSRYDTGRQRGYDYWGQGTQVTVSS | low polyreactivity
25 | QVQLVESGGGLVQAGGSLRLSCAASGRTSVSYAMGWYRQAPGKERELVASITSGGSTYYADSVKGRFTISRDNAKNTVYLQMNSLKPEDTAVYYCAARGRNVAGYKGGYWGQGTQVTVSS | high polyreactivity
26 | QVQLEESGGGLVQAGGSLRLSCAASGRIFYPYAMGWYRQAPGKERELVAAISRSGGSTYYADSVKGRFTISRDNAKNTVYLQMNSLKPEDTAVYYCATGFYRAISHHGYDYWGQGTQVTVSS | low polyreactivity
27 | QVQLQESGGGQVHAGGSLRLSCAASGTIFLYAYMGWYRQAPGKERELVAAIDVGTTTNYADSVKGRFTISRDNAKNTVYLQMNSLKPEDTAVYYCAANLGYLDDLGYWGQGTQETVSS | low polyreactivity
28 | QLQLVESGGGLDQAGCSLRLSCAASRTIITRNAMGWYRPAPGKESELVASINSGGSTYYADSVKGRFTISRDNAKNTVYLQMNSLKPDDTAVYYCAVEEDRYYYDDYDYWGQGTQVTVSS | low polyreactivity
29 | QVQLVQSGGGLVQAGGSLRLSCAASGSTFRRKVMGWYRQAPGKETELVAAISWSGTSTNYADSEKGRFTISRDNAKNTVYLQMNSVKPEDTAVYYCATQSLYYRWGLDYWGQGTEVTVSS | high polyreactivity
30 | QLQLVETGGGLVQAGGSLRLSCAASGRIFQYYVMGWYRQAPGKERELVAAITSGGSTYYADSVKGRFTISRDNAKNTVYLQMNSLKPEDTAVYYCAAGYWYNFDYWGQGTQVTVSS | high polyreactivity
31 | QVQLVESGGGLVQAGGSLRLSCAASGSIFEFYAMGWYRQAPGKERELVAAITSDGGSTYYADSVKGRFTISRDNAKNTVYLQMNSLKPEDTAVYYCAKDPYALPAQINDYWGQGTQVTVSS | high polyreactivity
32 | QVQHVESGGGLVQAGGSLRLSCASSGITFPDYSMGWYRQAPGKERELVAGISSTGDSTYYADSVKGRFTISRDNGKKTVYLQMNSLKPEDTAVYYCNAAQERPIIILFSKYDYWGQGTQVTVSS | low polyreactivity
33 | QVLLVESGGGLVQAGGSLRLSCAASGFIFVDYAMGWYRQAHGKERELVAAITSSGDRTYYADSVKGRFTISRDNAKNTVYLQMNSLKPEDTAVYYCNADWSTACYTSYDYWGQGTQVTVSS | low polyreactivity
34 | QVQLVESGGGLVQAGGSLRLSCAASGGTFEYYPMGWYRQAPGKETEMVAGITWGGVSTYYADSVKGRFTLSRDTAKNTVYLQMNSLKPEDTSVFYCAAAYSQDNVWWYYYWGQGTQVTVSS | high polyreactivity
35 | QFQLVESGGGLVQAGGSHRLSCAASGSIFFINAMGWYRQAPGKERELVASISQSGVSTYYADSVKGRFTISRDNAKNTVYFEMNSLKPEDTAVYYCATGPVRRARYVWSYTYYYWGQGTQVTVSS | low polyreactivity
36 | QVQLVESGGGLVQAGGSLRLSCAASGSTFWEYVMGWYRQAPGKERELVAAITTNDDSTYYADSVKGRFTISRDNAKNTVYLQMNSLKPEDTAVYYFNADQITGQFDYWGQGTQVTVSS | low polyreactivity
37 | QVQLVESGGGLVQAGGSLRLSCAASGRIFERYPMGWYRQAPGKERELVAGISISGGGTYYADSVKGRFTISRDTAKNTVYLQRNSLKPEDTAVSYCAATFPREEYGYWGQGTLVTVSS | low polyreactivity
38 | QVQLVESGGGLVQAGGSLRLSCAASGSIFGYNAMGWYRQAPGKERELVAAISGGGGTYYADSVKGRFTISRDNAKNTVYLQMNSLKPEDTAVYYCATDRVHKWLFYGTYYRYEYWGQGTHVTVSS | low polyreactivity
39 | QVQLVESGGGLVQAGGSLRLSCAASGFTFYRYAMGWYRQAPGKERELVAAISSSGGTTYYADSVKGRFTISRDNAKNTVYLQMNSLKPEDTAVYYCAARGWPTWGWGYDYWGQGTQVTVSS | high polyreactivity
40 | QVQLVESGGGLVQAGGSLRLSCAASGRIFLWYAMGWYRQAPGKERELVAAISSGGSTKYADSVKGRFTISRDNAKNTVYLQMNSLKPEDTAVYYCAATRKYSYVTYYYWGQGTQVTVSS | high polyreactivity
41 | QLQLVESGGGLVQAGGSLRLTCAASGIIFAYNARGWYRQAPGKERELVATITDSRGSTSYADSVKGRFTISRDNAKNTVYLQMNSLKPEDTAVYYCAVLPVYWYWRNYVYLSGYDYWGQGTQVTVSS | low polyreactivity
42 | QVQLVESGGSLVQAGGSLRVSCAASRSIFEHYAMGWYRQAHGKERELVATISSASRTHYADSVKGRFTISRDNAKNTVYLQRNSLKREDTAVYYCAARLYYVWYAPYYYWGQGTQVSVSS | high polyreactivity
43 | QVQLVESGGGLVQAGGSLRLSCAASGRIFTIYAMGWYRQAPGKERELVARITRGTSTYADSVKGRFTISRDNAKNTVYLQMNSLKPEDTAVYYCAADPTDTSLGDYWGQGTQVTVSS | high polyreactivity
